Data reported in US20140087995A1 (published 2014).
Numbered stars: 1 amine (or outer) side, 2 acyl side, 3 side chain; on linkers, the order of the positions; unused ones are H or OH. Bridge positions count the residues as written; N and C are the ends. Side chains are listed from the residue outwards. Ends that are not written are not given here. * marks the point of attachment. C20 diacid = O=C(O)CCCCCCCCCCCCCCCCCCC(=O)*; γGlu = O=C(O)[C@H](CCC(=O)[*:2])N[*:1]

B1: N^ε1-[(4S)-4-carboxy-4-(19-carboxynonadecanoylamino)butanoyl]-[Arg17,Pro21,Pro27,Glu35]-h-amylin (peptide)
peptide: K([γGlu-C20 diacid])CNTATCATQRLANFLRHSSPNFGAIPSSTNVGSETY-NH2
modifications: disulfide 2-7; N-terminus assumed
SMILES: CC[C@H](C)[C@H](NC(=O)[C@H](C)NC(=O)CNC(=O)[C@H](Cc1ccccc1)NC(=O)[C@H](CC(N)=O)NC(=O)[C@@H]1CCCN1C(=O)[C@H](CO)NC(=O)[C@H](CO)NC(=O)[C@H](Cc1c[nH]cn1)NC(=O)[C@H](CCCNC(=N)N)NC(=O)[C@H](CC(C)C)NC(=O)[C@H](Cc1ccccc1)NC(=O)[C@H](CC(N)=O)NC(=O)[C@H](C)NC(=O)[C@H](CC(C)C)NC(=O)[C@H](CCCNC(=N)N)NC(=O)[C@H](CCC(N)=O)NC(=O)[C@@H](NC(=O)[C@H](C)NC(=O)[C@@H]1CSSC[C@H](NC(=O)[C@@H](N)CCCCNC(=O)CC[C@H](NC(=O)CCCCCCCCCCCCCCCCCCC(=O)O)C(=O)O)C(=O)N[C@@H](CC(N)=O)C(=O)N[C@@H]([C@@H](C)O)C(=O)N[C@@H](C)C(=O)N[C@@H]([C@@H](C)O)C(=O)N1)[C@@H](C)O)C(=O)N1CCC[C@H]1C(=O)N[C@@H](CO)C(=O)N[C@@H](CO)C(=O)N[C@H](C(=O)N[C@@H](CC(N)=O)C(=O)N[C@H](C(=O)NCC(=O)N[C@@H](CO)C(=O)N[C@@H](CCC(=O)O)C(=O)N[C@H](C(=O)N[C@@H](Cc1ccc(O)cc1)C(N)=O)[C@@H](C)O)C(C)C)[C@@H](C)O
notes: also called 27; compound 27
B2: N^ε1-[(4S)-4-carboxy-4-(19-carboxynonadecanoylamino)butanoyl]-[Arg17,Pro21,Pro27,His34]-h-amylin (peptide)
peptide: K([γGlu-C20 diacid])CNTATCATQRLANFLRHSSPNFGAIPSSTNVGHNTY-NH2
modifications: disulfide 2-7; N-terminus assumed
SMILES: CC[C@H](C)[C@H](NC(=O)[C@H](C)NC(=O)CNC(=O)[C@H](Cc1ccccc1)NC(=O)[C@H](CC(N)=O)NC(=O)[C@@H]1CCCN1C(=O)[C@H](CO)NC(=O)[C@H](CO)NC(=O)[C@H](Cc1c[nH]cn1)NC(=O)[C@H](CCCNC(=N)N)NC(=O)[C@H](CC(C)C)NC(=O)[C@H](Cc1ccccc1)NC(=O)[C@H](CC(N)=O)NC(=O)[C@H](C)NC(=O)[C@H](CC(C)C)NC(=O)[C@H](CCCNC(=N)N)NC(=O)[C@H](CCC(N)=O)NC(=O)[C@@H](NC(=O)[C@H](C)NC(=O)[C@@H]1CSSC[C@H](NC(=O)[C@@H](N)CCCCNC(=O)CC[C@H](NC(=O)CCCCCCCCCCCCCCCCCCC(=O)O)C(=O)O)C(=O)N[C@@H](CC(N)=O)C(=O)N[C@@H]([C@@H](C)O)C(=O)N[C@@H](C)C(=O)N[C@@H]([C@@H](C)O)C(=O)N1)[C@@H](C)O)C(=O)N1CCC[C@H]1C(=O)N[C@@H](CO)C(=O)N[C@@H](CO)C(=O)N[C@H](C(=O)N[C@@H](CC(N)=O)C(=O)N[C@H](C(=O)NCC(=O)N[C@@H](Cc1c[nH]cn1)C(=O)N[C@@H](CC(N)=O)C(=O)N[C@H](C(=O)N[C@@H](Cc1ccc(O)cc1)C(N)=O)[C@@H](C)O)C(C)C)[C@@H](C)O
notes: also called 77; compound 77

Target: T1, human amylin receptor (amylin 3(a) receptor: human calcitonin receptor with RAMP-3) (human, UniProt P30988 25-474; O60896 24-148)
T1 construct: whole, on cells; also called hAmylin-R; hAmylinR
T1 sequence (looked up) 1: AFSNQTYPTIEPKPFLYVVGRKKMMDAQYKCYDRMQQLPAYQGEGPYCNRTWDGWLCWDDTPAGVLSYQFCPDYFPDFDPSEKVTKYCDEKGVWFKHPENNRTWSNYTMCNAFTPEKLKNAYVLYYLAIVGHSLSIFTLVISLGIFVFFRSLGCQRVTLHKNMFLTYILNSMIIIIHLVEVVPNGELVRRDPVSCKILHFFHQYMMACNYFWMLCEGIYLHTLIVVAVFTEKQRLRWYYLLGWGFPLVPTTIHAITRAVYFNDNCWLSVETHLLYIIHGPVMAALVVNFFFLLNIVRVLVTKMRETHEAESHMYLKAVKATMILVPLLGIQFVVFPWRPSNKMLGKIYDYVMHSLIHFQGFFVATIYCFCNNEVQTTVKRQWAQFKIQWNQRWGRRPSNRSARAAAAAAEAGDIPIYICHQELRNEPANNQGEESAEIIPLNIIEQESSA
T1 sequence (looked up) 2: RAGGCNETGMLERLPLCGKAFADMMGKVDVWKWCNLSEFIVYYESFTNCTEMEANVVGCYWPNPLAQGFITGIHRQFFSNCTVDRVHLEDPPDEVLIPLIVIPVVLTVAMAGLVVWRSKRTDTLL
Experiment: SPA displacement of 125I-rat amylin, hAmylin 3(a) receptor membranes
In short: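 Membranes from BHK Amylin 3(a)/CRE-luc cells (35 ng/μL final) were mixed with SPA beads and test compounds in 50 mM Hepes pH 7.4 with 1 mM CaCl2, 5 mM MgCl₂, 0.1% OA and 0.02% Tween20. Incubation ran 120 min at 25° C with shaking; IC₅₀ came from one-site competition fitting.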

Binder	IC50 [nM]
B1	0.837
B2	0.428
